Measured values published in US20180282719A1 (published 2018).
Positions count from the first letter of the chain named. Like-named read-outs stand apart in the source and are kept apart here. Values belong to the binder of their own block, whether it stands above or below them.

How the values were obtained:
[1] = target: T1, recombinant soluble human IL-6 receptor (SR344) (human, UniProt P08887 20-344, biotinylated (sites not given) where immobilized via streptavidin or used in phage ELISA); assay: SPR Biacore T100, antibody captured by anti-IgG gamma chain F(ab)2, SR344 analyte, pH 7.4, 37 C
T1 construct: also called soluble IL-6 receptor; membrane-type IL-6 receptor (when biotinylated and immobilized on the chip)
T1 sequence (looked up): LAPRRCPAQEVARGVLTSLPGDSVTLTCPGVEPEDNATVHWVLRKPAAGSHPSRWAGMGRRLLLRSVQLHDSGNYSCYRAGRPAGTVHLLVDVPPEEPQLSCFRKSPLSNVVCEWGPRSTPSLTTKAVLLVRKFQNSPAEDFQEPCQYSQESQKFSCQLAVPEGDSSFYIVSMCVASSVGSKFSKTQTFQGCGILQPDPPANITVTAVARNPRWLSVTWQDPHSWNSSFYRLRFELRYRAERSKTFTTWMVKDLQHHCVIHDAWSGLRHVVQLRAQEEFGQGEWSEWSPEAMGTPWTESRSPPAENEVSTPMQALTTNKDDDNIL
Experimental: (§1) Kinetic analyses of antigen-antibody reactions at pH 7.4 were carried out on the four types of antibodies, i.e., the humanized PM1 antibody (wild type: WT), and […], H3pI/L73-IgG1, Fv2-IgG1, and Fv4-IgG1 constructed in Examples 2 and 10, by using a Biacore T100™ surface plasmon resonance system (GE Healthcare) (buffer: 10 mM MES (pH 7.4), 150 mM NaCl, 0.05% TWEEN® 20 (polyoxyethelene sorbitan monolaurate)). Each antibody was bound on a sensor chip on which an anti-IgG γ chain specific F(ab)₂ (Pierce) was immobilized by amine coupling, and then, SR344 adjusted to a concentration of 9.8 to 40 nM was injected thereto as an analyte. The association to and dissociation from SR344 were observed on a real-time basis for the pH-dependent-binding clones. All the measurements were carried out at 37° C. Association rate constants kₐ (1/Ms) and dissociation rate constants kd (1/s) were calculated using Biacore T100™ Evaluation Software (GE Healthcare), and dissociation constants KD (M) were calculated on the basis of those values (Table 7).

[2] = target: T1, recombinant soluble human IL-6 receptor …; assay: as above; remark: listed apart in the source
Experimental: as §1
(§2) The association to and dissociation from SR344 were observed on a real-time basis using the same method as Example 10 for the eleven types of antibodies, humanized PM1 antibody (wild type: WT) and H3pI/L73-IgG1, Fv1-M71, Fv1-M73, Fv2-IgG1, Fv3-M71, Fv3-M73, Fv4-IgG1, Fv4-IgG2, Fv4-M58, and Fv4-M73, constructed as described above. The association rate constants kₐ (1/Ms) and dissociation rate constants kd. (1/s) were calculated by analysis in the same manner, and the dissociation constants KD (M) were calculated on the basis of those values (Table 11).

[3] = target: T1, recombinant soluble human IL-6 receptor …; assay: SPR Biacore T100, biotinylated SR344 on streptavidin chip (model of membrane-type IL-6 receptor), antibody as analyte, 37 C
Experimental: (§3) Binding to the membrane-type IL-6 receptor was evaluated by evaluating binding to the IL-6 receptor immobilized on a sensor chip. SR344 was biotinylated in accordance with a method known among persons with ordinary skill in the art, and the biotinylated SR344 was immobilized on the sensor chip via streptavidin using the affinity between streptavidin and biotin. All the measurements were carried out at 37° C. The mobile phase buffer was 10 mM MES (pH 5.8), 150 mM NaCl and 0.05% TWEEN® 20 (polyoxyethelene sorbitan monolaurate).
(§4) The pH-dependently-binding clones were injected under the condition of pH 7.4 to allow them to bind to SR344, and then, the pH-dependent dissociation of each clone at the pH of the mobile phase, pH 5.8, was observed. The results are shown in FIG. 21 (results for Fv1-M71, Fv1-M73, Fv3-M71, and Fv3-M73 are shown in FIG. 21, while results for other clones are shown in FIGS. 17 and 19). Analyses were carried out in the same manner as in Example 10 and the pH dependencies of the dissociation rate constants of all of the eleven types of clones are shown in Table 12.

[4] = target: T1, recombinant soluble human IL-6 receptor …; assay: SPR Biacore T100, biotinylated SR344 on streptavidin chip (model of membrane-type IL-6 receptor), antibody 0.25 ug/mL as analyte, 37 C
Experimental: as §3, §4

[5] = target: T1, recombinant soluble human IL-6 receptor …; assay: SPR Biacore T100, biotinylated SR344 on streptavidin chip (model of membrane-type IL-6 receptor), antibody as analyte, bound at pH 7.4, dissociation at pH 5.8, 37 C
Experimental: as §3, §4

[6] = target: T1, recombinant soluble human IL-6 receptor …; assay: SPR Biacore T100, biotinylated SR344 on streptavidin chip (model of membrane-type IL-6 receptor), antibody as analyte, bound at pH 7.4, dissociation at pH 7.4, 37 C
Experimental: as §3, §4

[7] = target: T1, recombinant soluble human IL-6 receptor …; assay: SPR Biacore T100, biotinylated SR344 on streptavidin chip (model of membrane-type IL-6 receptor), antibody 0.25 ug/mL as analyte, bound at pH 7.4, dissociation at pH 5.8, 37 C
Experimental: as §3, §4

[8] = target: T1, recombinant soluble human IL-6 receptor …; assay: SPR Biacore T100, biotinylated SR344 on streptavidin chip (model of membrane-type IL-6 receptor), antibody 0.25 ug/mL as analyte, bound at pH 7.4, dissociation at pH 7.4, 37 C
[9] = target: T1, recombinant soluble human IL-6 receptor …; assay: SPR Biacore T100, antibody captured by anti-IgG gamma chain F(ab)2, SR344 analyte, pH 7.4, 37 C; remark: listed apart in the source
Experimental: as §1, §2

[10] = target: T1, recombinant soluble human IL-6 receptor …; assay: SPR Biacore T100, biotinylated SR344 on streptavidin chip (model of membrane-type IL-6 receptor), antibody as analyte, 37 C; remark: listed apart in the source
Experimental: as §3, §4

[11] = target: T1, recombinant soluble human IL-6 receptor …; assay: SPR Biacore T100, biotinylated SR344 on streptavidin chip (model of membrane-type IL-6 receptor), antibody as analyte, bound at pH 7.4, dissociation at pH 5.8, 37 C; remark: listed apart in the source
Experimental: as §3, §4

[12] = target: T1, recombinant soluble human IL-6 receptor …; assay: SPR Biacore T100, biotinylated SR344 on streptavidin chip (model of membrane-type IL-6 receptor), antibody as analyte, bound at pH 7.4, dissociation at pH 7.4, 37 C; remark: listed apart in the source
Experimental: as §3, §4

B1: Fv2-IgG1 (antibody, V domains shown)
VH: QVQLQESGPGLVKPSETLSLTCAVSGYSISHDHAWSWVRQPPGEGLEWIGHISYSGITNYNPHLQDRVTISRDTSKNQFSLKLSSVTAADTAAYYCARFLARITAHDHWGEGTLVTVSS
VL: DIQMTQSPSSLSASVGDSVTITCQASQDISSHLNWYQQKPGKAPELLIYYGSHLHSGVPSRFSGSGSGTDFTFTISSLEAEDAATYYCGQGNRLPYTFGQGTKVEIE
notes: VH1-IgG1 as H chain and L82 as L chain
Kd [1]: 2 nM
koff [1]: 0.00077 s⁻¹
kon [1]: 390000 M⁻¹ s⁻¹
Kd [2]: 2 nM
koff [2]: 0.00077 s⁻¹
kon [2]: 390000 M⁻¹ s⁻¹
kd (pH 5.8)/kd (pH 7.4) [3]: 7.18
kd (pH 5.8)/kd (pH 7.4) [4]: 7.18
koff [5]: 0.0024 s⁻¹
koff [6]: 0.00034 s⁻¹
koff [7]: 0.0024 s⁻¹
koff [8]: 0.00034 s⁻¹

B2: Fv4-M58 (antibody)
heavy: QVQLQESGPGLVKPSETLSLTCAVSGHSISHDHAWSWVRQPPGEGLEWIGFISYSGITNYNPSLQGRVTISRDNSKNTLYLQMNSLRAEDTAVYYCARSLARTTAMDYWGEGTLVTVSSASTKGPSVFPLAPSSKSTSGGTAALGCLVKDYFPEPVTVSWNSGALTSGVHTFPAVLQSSGLYSLSSVVTVPSSNFGTQTYTCNVDHKPSNTKVDKTVERKSCVECPPCPAPPVAGPSVFLFPPKPKDTLMISRTPEVTCVVVDVSQEDPEVQFNWYVDGVEVHNAKTKPREEQFNSTFRVVSVLTVVHQDWLNGKEYKCKVSNKGLPAPIEKTISKTKGQPREPQVYTLPPSQEEMTKNQVSLTCLVKGFYPSDIAVEWESNGQPENNYKTTPPMLDSDGSFFLYSKLTVDKSRWQEGNVFSCSVMHEALHNHYTQKSLSLSP
light: DIQMTQSPSSLSASVGDSVTITCQASTDISSHLNWYQQKPGKAPELLIYYGSHLLSGVPSRFSGSGSGTDFTFTISSLEAEDAATYYCGQGNRLPYTFGQGTKVEIERTVAAPSVFIFPPSDEQLKSGTASVVCLLNNFYPREAKVQWKVDNALQSGNSQESVTEQDSKDSTYSLSSTLTLSKADYEKHKVYACEVTHQGLSSPVTKSFNRGEC
notes: VH3-M58 / VL3-CK
Kd [9]: 1.4 nM
koff [9]: 0.0011 s⁻¹
kon [9]: 830000 M⁻¹ s⁻¹
Kd [2]: 1.4 nM
koff [2]: 0.0011 s⁻¹
kon [2]: 830000 M⁻¹ s⁻¹
kd (pH 5.8)/kd (pH 7.4) [10]: 17.6
kd (pH 5.8)/kd (pH 7.4) [3]: 17.6
koff [11]: 0.0095 s⁻¹
koff [12]: 0.00054 s⁻¹
koff [5]: 0.0095 s⁻¹
koff [6]: 0.00054 s⁻¹

Now from value to binder:

Kd [9]: 1.4 nM
koff [9]: 0.001 s⁻¹
kon [9]: 750000 M⁻¹ s⁻¹
Kd [2]: 1.4 nM
koff [2]: 0.001 s⁻¹
kon [2]: 750000 M⁻¹ s⁻¹
kd (pH 5.8)/kd (pH 7.4) [10]: 10.1
kd (pH 5.8)/kd (pH 7.4) [3]: 10.1
koff [11]: 0.0051 s⁻¹
koff [12]: 0.00051 s⁻¹
koff [5]: 0.0051 s⁻¹
koff [6]: 0.00051 s⁻¹
B3: Fv4-M73 (antibody)
heavy: B2 heavy with N432A
light: B2 light
notes: VH3-M73 / VL3-CK

Kd [9]: 1.3 nM
koff [9]: 0.0012 s⁻¹
kon [9]: 960000 M⁻¹ s⁻¹
Kd [2]: 1.3 nM
koff [2]: 0.0012 s⁻¹
kon [2]: 960000 M⁻¹ s⁻¹
kd (pH 5.8)/kd (pH 7.4) [10]: 17
kd (pH 5.8)/kd (pH 7.4) [3]: 17
koff [11]: 0.018 s⁻¹
koff [12]: 0.001 s⁻¹
koff [5]: 0.018 s⁻¹
koff [6]: 0.001 s⁻¹
B4: Fv4-IgG2 (antibody)
heavy: B2 heavy with S133C, K135R, G139E, G140S, S221C, Q266H, Q353R, E417Q
light: B2 light
notes: VH3-IgG2deltaGK / VL3-CK; also called Fv4-IgG2deltaGK
